Results as given in paper PMC3715890.

Legend:
[1] = target: T1, HIF-1α 1-350;HIF-1β (ARNT) 1-474 (human?;human?, UniProt Q16665;P27540 1-350;1-474, |); test: EMSA; EMSA: Tris-HCl (concentration and pH not in material), 50 mM KCl, 50 mM NaCl, 5 mM DTT, 1 mM MgCl2, 1 mM EDTA, 10% glycerol, 5 µg BSA, 25 ng poly dI-dC; 30 min
[2] = target: HIF-2α (EPAS1) 1-351;HIF-1β (ARNT) 1-474 (human?;human?, UniProt Q99814;P27540 1-351;1-474, |); test: as above
[3] = target: T1, HIF-1α 1-350;HIF-1β (ARNT) 1-474; test: competition; unlabelled DNA titrated against labelled probe N1 (EMSA); EMSA: Tris-HCl (concentration and pH not in material), 50 mM KCl, 50 mM NaCl, 5 mM DTT, 1 mM MgCl2, 1 mM EDTA, 10% glycerol, 5 µg BSA, 25 ng poly dI-dC; 30 min

Row | Binder | binding result [1] | binding result [2] | binding result [3]
1 | EMSA HRE probe (human EPO enhancer) (dsDNA) DNA 1: GGCTGGGCCTACGTGCTGTCTCACACAGCC DNA 2: GGCTGTGTGAGACAGCACGTAGGCCCAGCC | binds | binds | –
2 | unlabelled HRE competitor DNA (dsDNA) DNA 1: GGCTGGGCCTACGTGCTGTCTCACACAGCC DNA 2: GGCTGTGTGAGACAGCACGTAGGCCCAGCC | – | – | binds
